Measured values: article PMC12634842

Biological target: Cys151 (UniProt position 151, SMGEKCVLHVM)
Assay: chemical modification (fluorescence detection)
Settings: 25 °C; 15 mM acetate/15 mM MES/30 mM Tris; Reduced (DTT-treated, desalted) free BTB domain, folded, no ligand

## Kelch-like ECH-associated protein 1 (KEAP1), BTB domain (Homo sapiens; S172A)
  pKa: 6.90 ± 0.05
